# Laboratory results published in US20240141046A1 (published 2024).
# Like-named read-outs stand apart in the source and are kept apart here.
# T1: recombinant human CTLA4-Fc (Sino Biological, 11159-H03H) (human, UniProt P16410 36-162)
# T1 construct: bought; also called human CTLA4 fused with human FC fragment
# T1 sequence (looked up): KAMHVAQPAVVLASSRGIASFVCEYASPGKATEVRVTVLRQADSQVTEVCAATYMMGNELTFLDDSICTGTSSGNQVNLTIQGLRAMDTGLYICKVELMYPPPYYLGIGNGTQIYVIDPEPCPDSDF
# Legend:
# [1] = molecular target: mouse CTLA4 fused with human FC fragment (mouse, UniProt P09793 36-162, limits assumed); assay: ELISA, Fab captured
# [2] = molecular target: T1, recombinant human CTLA4-Fc (Sino …); assay: ELISA, Fab captured
# [3] = molecular target: T1, recombinant human CTLA4-Fc (Sino …); assay: ELISA, CTLA4-Fc coated, batch 2
# Method: (§1) Plates were blocked with PBS supplemented with 3% non-fat milk at 37° C. for 1 hour. After washing, 100 μL, of 3-fold serial dilutions of antibodies were added to each well. After incubation at 37° C. for 1 hour, plates were washed four times, and 100 μL HRP conjugated anti-human IgG (Fab specific) (1:6000 dilution) was added to each well. Plates were incubated at 37° C. for 1 hour, washed four times, and then 50 μL TMB substrate solution was added to each well, and the plate was incubated at room temperature. […] The EC50 was evaluated by fitting the ELISA data using the asymmetrical sigmoidal (five-parameter logistic equation) model of GraphPad Prism 6 software.
# [4] = molecular target: T1, recombinant human CTLA4-Fc (Sino …); assay: ELISA, CTLA4-Fc coated, batch 1
# Method: as §1
# [5] = molecular target: T1, recombinant human CTLA4-Fc (Sino …); assay: ELISA; EC50 over EC50 of TY21580
# Method: as §1
# [6] = molecular target: T1, recombinant human CTLA4-Fc (Sino …); assay: ELISA; EC50 over EC50 of TY21580; remark: listed apart in the source
# Method: as §1
# [7] = molecular target: T1, recombinant human CTLA4-Fc (Sino …); assay: ELISA; EC50 over EC50 of TY21580; remark: listed apart in the source
# Method: Plates were incubated at 37° C. for 1 hour, washed four times, and then 50 μL TMB substrate solution was added to each well, and the plate was incubated at room temperature. […] The EC50 was evaluated by fitting the ELISA data using the asymmetrical sigmoidal (five-parameter logistic equation) model of GraphPad Prism 6 software.
# The purified activatable antibodies were treated with the proteases which recognize the cleavage sequences, and were then tested to determine whether removal of the masking peptide restored their activity. […] The masking efficiency was then measured by ELISA as described above.
# [8] = molecular target: T1, recombinant human CTLA4-Fc (Sino …); assay: ELISA; EC50 over EC50 of TY21580; remark: listed apart in the source
# Method: as §1
LogEC50 [3],Masking efficiency [5],Binder,also measured
–,–,"B15736 (Fab, V domains shown) VH: EVQLVESGGGLVQPGGSLRLSCAASGFTFSDYAIHWVRQAPGKGLEWIGIISPSGGSTKYAQKFQGRVTISRDNSKNTLYLQLNSLRAEDTAVYYCARLGYGYFDVWGQGTLVTVSS VL: DIQLTQSPSSLSASVGDRVTITCRASQSVDFYGISFLHWYQQKPGKAPKLLIYDASSLESGVPSRFSGSGSGTDFTLTISSLQPEDFATYYCVQALQLPLTFGQGTKVEIKR",binding result [1]: binds; binding result [2]: binds
-7.8,–,"TY22401 (antibody, V domains shown, peptide fused to the N-terminus of the light chain; also called B13189 (peptide name)) VH: EVQLVESGGGLVQPGGSLRLSCAASGYSISSGYHWSWIRQAPGKGLEWLARIDWDDDKYYSTSLKSRLTISRDNSKNTLYLQLNSLRAEDTAVYYCARSYVYFDYWGQGTLVTVSS VL: EVGSYNFVADSCPDHPYPCSASGRSAGGGGSPLGLAGSGGSDIQLTQSPSSLSASVGDRVTITCRASQSVRGRFLAWYQQKPGKAPKLLIYDASNRATGIPSRFSGSGSGTDFTLTISSLQPEDFATYYCQQSSSWPPTFGQGTKVEIKR",LogEC50 [4]: -7.62
-6.68,–,"TY22565 (antibody, IgG1, V domains shown) VH: EVQLVESGGGLVQPGGSLRLSCAASGYSISSGYHWSWIRQAPGKGLEWLARIDWDDDKYYSTSLKSRLTISRDNSKNTLYLQLNSLRAEDTAVYYCARSYVYFDYWGQGTLVTVSS VL: EVGSYPQPSSDCVPYYYACAYSGRSAGGGGSPLGLAGSGGSDIQLTQSPSSLSASVGDRVTITCRASQSVRGRFLAWYQQKPGKAPKLLIYDASNRATGIPSRFSGSGSGTDFTLTISSLQPEDFATYYCQQSSSWPPTFGQGTKVEIKR",–
–,168 fold,"TY22775 (antibody, V domains shown) VH: EVQLVESGGGLVQPGGSLRLSCAASGYSISSGYHWSWIRQAPGKGLEWLARIDWDDDKYYSTSLKSRLTISRDNSKNTLYLQLNSLRAEDTAVYYCARSYVYFDYWGQGTLVTVSS VL: EVGHSDCDAFYPYCDSSGRSAGGGGTPLGLAGSGGSDIQLTQSPSSLSASVGDRVTITCRASQSVRGRFLAWYQQKPGKAPKLLIYDASNRATGIPSRFSGSGSGTDFTLTISSLQPEDFATYYCQQSSSWPPTFGQGTKVEIKR",–
-6.79,489 fold,"TY22566 (antibody, IgG1, V domains shown) VH: EVQLVESGGGLVQPGGSLRLSCAASGYSISSGYHWSWIRQAPGKGLEWLARIDWDDDKYYSTSLKSRLTISRDNSKNTLYLQLNSLRAEDTAVYYCARSYVYFDYWGQGTLVTVSS VL: EVGSYPNPASDCVPYYYACAYSGRSAGGGGSPLGLAGSGGSDIQLTQSPSSLSASVGDRVTITCRASQSVRGRFLAWYQQKPGKAPKLLIYDASNRATGIPSRFSGSGSGTDFTLTISSLQPEDFATYYCQQSSSWPPTFGQGTKVEIKR",–
-7.32,144 fold,"TY22563 (antibody, IgG1, V domains shown) VH: EVQLVESGGGLVQPGGSLRLSCAASGYSISSGYHWSWIRQAPGKGLEWLARIDWDDDKYYSTSLKSRLTISRDNSKNTLYLQLNSLRAEDTAVYYCARSYVYFDYWGQGTLVTVSS VL: EVGSYYSAYPACDSHYPYCQSSGRSAGGGGSPLGLAGSGGSDIQLTQSPSSLSASVGDRVTITCRASQSVRGRFLAWYQQKPGKAPKLLIYDASNRATGIPSRFSGSGSGTDFTLTISSLQPEDFATYYCQQSSSWPPTFGQGTKVEIKR",–
–,296 fold,"TY22776 (antibody, V domains shown) VH: EVQLVESGGGLVQPGGSLRLSCAASGYSISSGYHWSWIRQAPGKGLEWLARIDWDDDKYYSTSLKSRLTISRDNSKNTLYLQLNSLRAEDTAVYYCARSYVYFDYWGQGTLVTVSS VL: EVGSSDCVPYYYACAYSGRSAGGGGTPLGLAGSGGSDIQLTQSPSSLSASVGDRVTITCRASQSVRGRFLAWYQQKPGKAPKLLIYDASNRATGIPSRFSGSGSGTDFTLTISSLQPEDFATYYCQQSSSWPPTFGQGTKVEIKR",–
-6.9,243 fold,"TY22402 (antibody, IgG1, V domains shown, also called B13180 (peptide name)) VH: EVQLVESGGGLVQPGGSLRLSCAASGYSISSGYHWSWIRQAPGKGLEWLARIDWDDDKYYSTSLKSRLTISRDNSKNTLYLQLNSLRAEDTAVYYCARSYVYFDYWGQGTLVTVSS VL: EVGSYIVHHSDCDAFYPYCDSSGRSAGGGGSPLGLAGSGGSDIQLTQSPSSLSASVGDRVTITCRASQSVRGRFLAWYQQKPGKAPKLLIYDASNRATGIPSRFSGSGSGTDFTLTISSLQPEDFATYYCQQSSSWPPTFGQGTKVEIKR",Masking efficiency [6]: 554 fold; LogEC50 [4]: -6.32
-7.41,–,"TY22564 (antibody, IgG1, V domains shown) VH: EVQLVESGGGLVQPGGSLRLSCAASGYSISSGYHWSWIRQAPGKGLEWLARIDWDDDKYYSTSLKSRLTISRDNSKNTLYLQLNSLRAEDTAVYYCARSYVYFDYWGQGTLVTVSS VL: EVGSYYSAYPACDSHYPYCNSAGRSAGGGGSPLGLAGSGGSDIQLTQSPSSLSASVGDRVTITCRASQSVRGRFLAWYQQKPGKAPKLLIYDASNRATGIPSRFSGSGSGTDFTLTISSLQPEDFATYYCQQSSSWPPTFGQGTKVEIKR",–
-6.89,308 fold,"TY22404 (antibody, IgG1, V domains shown, also called B13197 (peptide name)) VH: EVQLVESGGGLVQPGGSLRLSCAASGYSISSGYHWSWIRQAPGKGLEWLARIDWDDDKYYSTSLKSRLTISRDNSKNTLYLQLNSLRAEDTAVYYCARSYVYFDYWGQGTLVTVSS VL: EVGSYPNPSSDCVPYYYACAYSGRSAGGGGSPLGLAGSGGSDIQLTQSPSSLSASVGDRVTITCRASQSVRGRFLAWYQQKPGKAPKLLIYDASNRATGIPSRFSGSGSGTDFTLTISSLQPEDFATYYCQQSSSWPPTFGQGTKVEIKR",Masking efficiency [6]: 572 fold; LogEC50 [4]: -6.75; Masking efficiency [7]: 216 fold; Masking efficiency [8]: 469 fold
–,–,"B15700 (Fab, V domains shown) VH: EVQLVESGGGLVQPGGSLRLSCAASGFTFSGYAIHWVRQAPGKGLEWIGIISPSGGGTKYAQKFQGRVTISRDNSKNTLYLQLNSLRAEDTAVYYCARHPFAYWGQGTLVTVSS VL: DIQLTQSPSSLSASVGDRVTITCRASQSVDFYGISFLDWYQQKPGKAPKLLIYDASNRATGIPSRFSGSGSGTDFTLTISSLQPEDFATYYCQQYVSSPPEYTFGQGTKVEIKR",binding result [1]: binds; binding result [2]: binds
–,–,"B15709 (Fab, V domains shown) VH: EVQLVESGGGLVQPGGSLRLSCAASGFTFSDYAIHWVRQAPGKGLEWIGIISPSSGSTNYAQKFQGRVTISRDNSKNTLYLQLNSLRAEDTAVYYCARDIHSGSSGYYYGFDVWGQGTLVTVSS VL: DIQLTQSPSSLSASVGDRVTITCRASESVDFFGISFLAWYQQKPGKAPKLLIYDASNRATGIPSRFSGSGSGTDFTLTISSLQPEDFATYYCQHYTSSPPVYTFGQGTKVEIKR",binding result [1]: binds; binding result [2]: binds
